Assay results reported in patent US20260193365A1 (GRANITE BIO, published 2026).
Changes are numbered by the printed parent chain.

B1: DOC2 chim. (antibody, human IgG1, kappa, V domains shown)
VH: EVQLVESGGGLVKPGGSLKLSCVASGFTLSNYAMSWVRQSPEKRLEWVAEVSSSGIYIYYSDTVTGRFSISRDNAKNTLYLEMSSLRSEDTAIYYCARDRYAYAMDYWGHGTSVIVSS
VL: DIVMTQSPSSLAISVGQRVTLSCKSSQSLLNSYNQKNSLAWYQQKPGQSPKLLVYFASTRESGVPDRFIGSGSGTYFTLTITSVQAGDLADYFCQQHYSNPRTFGGGTRLEIKR
B2: DOC2-ChXRKA (antibody, human IgG1, kappa, V domains shown)
VH: B1 VH
VL: DIVMTQSPDSLAVSLGERATINCKSSQSLLNSYNQKNSLAWYQQKPGQPPKLLIYFASTRESGVPDRFSGSGSGTDFTLTISSLQAEDVAVYYCQQHYSNPRTFGGGTKLEIKR
B3: DOC2-RHBXRKB (antibody, human IgG1, kappa, V domains shown)
VH: EVQLVESGGGVVQPGRSLRLSCAASGFTLSNYAMSWVRQAPGKGLEWVAEVSSSGIYIYYSDTVTGRFSISRDNSKNTLYLQMNSLRAEDTAVYYCARDRYAYAMDYWGQGTLVIVSS
VL: B2 VL with I54V, Y93F
notes: The number agrees with the antibody's name and was used
B4: DOC2-RHAXRKB (antibody, human IgG1, kappa, V domains shown)
VH: B3 VH with S69T, I115T
VL: B2 VL with I54V, Y93F
B5: DOC2-RHAXRKA (antibody, human IgG1, kappa, V domains shown)
VH: B3 VH with S69T, I115T
VL: B2 VL
notes: also called DOC2-reshaped
B6: DOC2-RHBXRKC (antibody, human IgG1, kappa, V domains shown)
VH: B3 VH
VL: B2 VL with I54V, S69I, D76Y, Y93F
B7: DOC2-RHBXRKA (antibody, human IgG1, kappa, V domains shown)
VH: B3 VH
VL: B2 VL
B8: DOC3 chim. (antibody, human IgG1, kappa, V domains shown)
VH: QVQLKESGPGLVAPSQSLSITCTVSGFSLTRYDLSWIRQPPGKGLQWLGVIWTGGGTNYNSAFMSRLSIRKDNSKSQVFLKMNSLQTDDTAIYYCVRENYYNRRGYFDVWGAGTTVTVSS
VL: QIVLTQSPAIMSTSPGEKVTITCSASSSVSYMHWFQQKPGTSPKLWIYLTSNLASGVPARFSGSGSGTSYSLTINRMEAEDAATYYCQQRSGSPPTFGTGTKLELRR
B9: DOC3-RHLXRKA (antibody, human IgG1, kappa, V domains shown)
VH: QVQLQESDPGLVKPSETLSLTCTVSGFSISRYDLSWIRQPPGKGLEWIGVIWTGGGTNYNSAFMSRLTISKDTSKNQVSLKLSSVTAADTAVYYCARENYYNRRGYFDVWGQGTMVTVSS
VL: EIVLTQSPATLSLSPGERATLSCSASSSVSYMHWFQQKPGQAPRLLIYLTSNLASGIPARFSGSGSGTDFTLTISSLEPEDFAVYYCQQRSGSPPTFGPGTKLDIKR
B10: DOC3-RH09XRKA (antibody, human IgG1, kappa, V domains shown)
VH: EVQLVESGGGLVQPGGSLRLSCAVSGFSLTRYDLSWVRQAPGKGLEWLGVIWTGGGTNYNSAFMSRFSISKDNSKNTVFLQMNSLRAEDTAVYYCARENYYNRRGYFDVWGQGTTVTVSS
VL: B9 VL
B11: DOC3-RH09XRKC (antibody, human IgG1, kappa, V domains shown)
VH: B10 VH
VL: B9 VL with E1Q, I57V
B12: DOC3-RH03XRKA (antibody, human IgG1, kappa, V domains shown)
VH: B10 VH with F67L, S68T, K71R, V78L, F79Y, A96V
VL: B9 VL

Experiments:
[1] = target: T1, human CCR2 (human, UniProt O18793 1-360 (rhesus entry)); experiment: cell binding, human monocytes
T1 construct: On primary human monocytes/PBMC and on human-CCR2 transfected CHO cells; also called C-C Motif Chemokine Receptor 2; CD192
T1 chain: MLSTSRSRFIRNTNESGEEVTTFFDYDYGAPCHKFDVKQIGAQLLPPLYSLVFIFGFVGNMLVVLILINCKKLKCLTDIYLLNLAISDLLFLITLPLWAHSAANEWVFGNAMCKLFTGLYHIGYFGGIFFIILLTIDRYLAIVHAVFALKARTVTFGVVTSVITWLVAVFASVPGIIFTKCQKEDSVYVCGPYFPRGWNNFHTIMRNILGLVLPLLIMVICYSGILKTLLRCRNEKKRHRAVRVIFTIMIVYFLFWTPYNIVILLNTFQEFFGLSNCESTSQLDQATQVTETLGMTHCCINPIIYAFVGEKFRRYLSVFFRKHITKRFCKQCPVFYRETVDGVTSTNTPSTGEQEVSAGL

[2] = target: T2, Marmoset monkey (Callithrix jacchus) CCR2 (Marmoset monkey (Callithrix jacchus), UniProt O18793 1-360); experiment: cell binding, primary marmoset monocytes
T2 construct: On primary marmoset monocytes (marmoset blood/PBMC); they may hold print errors; also called marmoset CCR2; marmoset CCR2b
T2 chain: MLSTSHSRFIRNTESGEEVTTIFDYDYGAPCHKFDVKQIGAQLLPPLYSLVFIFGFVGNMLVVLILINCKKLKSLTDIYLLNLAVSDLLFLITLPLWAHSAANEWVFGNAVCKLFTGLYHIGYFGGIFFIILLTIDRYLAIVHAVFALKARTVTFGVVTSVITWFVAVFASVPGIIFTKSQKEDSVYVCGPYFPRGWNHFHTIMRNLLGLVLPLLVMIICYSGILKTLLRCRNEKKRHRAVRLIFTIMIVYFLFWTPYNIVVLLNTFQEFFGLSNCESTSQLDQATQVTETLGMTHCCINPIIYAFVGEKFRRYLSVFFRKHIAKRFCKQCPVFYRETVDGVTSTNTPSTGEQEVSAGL

[3] = target: T1, human CCR2; experiment: cell binding, primary human monocytes
[4] = target: T2, Marmoset monkey (Callithrix jacchus) …; experiment: cell binding, primary marmoset monocytes (marmoset blood)
[5] = target: T1, human CCR2; experiment: cell binding, human PBMCs

| Binder | binding result [2] | binding result [3] | further results |
| --- | --- | --- | --- |
| B1 | – | – | binding result [1]: binds |
| B2 | no binding | – | – |
| B3 | no binding | binds | – |
| B4 | no binding | binds | – |
| B5 | – | binds | – |
| B6 | no binding | binds | – |
| B7 | no binding | binds | – |
| B8 | – | – | binding result [1]: binds |
| B9 | – | – | binding result [4]: no binding; binding result [5]: binds |
| B10 | no binding | binds | – |
| B11 | no binding | binds | – |
| B12 | – | – | binding result [4]: no binding |
